From IntAct's records for PubMed 22518841

B1: Complement factor H-related protein 4 (Homo sapiens), Q92496-3 (parent)
chain: MLLLINVILTLWVSCANGQEVKPCDFPEIQHGGLYYKSLRRLYFPAAAGQSYSYYCDQNFVTPSGSYWDYIHCTQDGWSPTVPCLRTCSKSDIEIENGFISESSSIYILNKEIQYKCKPGYATADGNSSGSITCLQNGWSAQPICIKFCDMPVFENSRAKSNGMRFKLHDTLDYECYDGYEISYGNTTGSIVCGEDGWSHFPTCYNSSEKCGPPPPISNGDTTSFLLKVYVPQSRVEYQCQSYYELQGSNYVTCSNGEWSEPPRCIHPCIITEENMNKNNIQLKGKSDIKYYAKTGDTIEFMCKLGYNANTSVLSFQAVCREGIVEYPRCE

Assays:
co3_human C3, P01024 = variants of: B1; details: with co3_human C3, P01024
Sequence of co3_human C3, P01024 (P01024 whole entry): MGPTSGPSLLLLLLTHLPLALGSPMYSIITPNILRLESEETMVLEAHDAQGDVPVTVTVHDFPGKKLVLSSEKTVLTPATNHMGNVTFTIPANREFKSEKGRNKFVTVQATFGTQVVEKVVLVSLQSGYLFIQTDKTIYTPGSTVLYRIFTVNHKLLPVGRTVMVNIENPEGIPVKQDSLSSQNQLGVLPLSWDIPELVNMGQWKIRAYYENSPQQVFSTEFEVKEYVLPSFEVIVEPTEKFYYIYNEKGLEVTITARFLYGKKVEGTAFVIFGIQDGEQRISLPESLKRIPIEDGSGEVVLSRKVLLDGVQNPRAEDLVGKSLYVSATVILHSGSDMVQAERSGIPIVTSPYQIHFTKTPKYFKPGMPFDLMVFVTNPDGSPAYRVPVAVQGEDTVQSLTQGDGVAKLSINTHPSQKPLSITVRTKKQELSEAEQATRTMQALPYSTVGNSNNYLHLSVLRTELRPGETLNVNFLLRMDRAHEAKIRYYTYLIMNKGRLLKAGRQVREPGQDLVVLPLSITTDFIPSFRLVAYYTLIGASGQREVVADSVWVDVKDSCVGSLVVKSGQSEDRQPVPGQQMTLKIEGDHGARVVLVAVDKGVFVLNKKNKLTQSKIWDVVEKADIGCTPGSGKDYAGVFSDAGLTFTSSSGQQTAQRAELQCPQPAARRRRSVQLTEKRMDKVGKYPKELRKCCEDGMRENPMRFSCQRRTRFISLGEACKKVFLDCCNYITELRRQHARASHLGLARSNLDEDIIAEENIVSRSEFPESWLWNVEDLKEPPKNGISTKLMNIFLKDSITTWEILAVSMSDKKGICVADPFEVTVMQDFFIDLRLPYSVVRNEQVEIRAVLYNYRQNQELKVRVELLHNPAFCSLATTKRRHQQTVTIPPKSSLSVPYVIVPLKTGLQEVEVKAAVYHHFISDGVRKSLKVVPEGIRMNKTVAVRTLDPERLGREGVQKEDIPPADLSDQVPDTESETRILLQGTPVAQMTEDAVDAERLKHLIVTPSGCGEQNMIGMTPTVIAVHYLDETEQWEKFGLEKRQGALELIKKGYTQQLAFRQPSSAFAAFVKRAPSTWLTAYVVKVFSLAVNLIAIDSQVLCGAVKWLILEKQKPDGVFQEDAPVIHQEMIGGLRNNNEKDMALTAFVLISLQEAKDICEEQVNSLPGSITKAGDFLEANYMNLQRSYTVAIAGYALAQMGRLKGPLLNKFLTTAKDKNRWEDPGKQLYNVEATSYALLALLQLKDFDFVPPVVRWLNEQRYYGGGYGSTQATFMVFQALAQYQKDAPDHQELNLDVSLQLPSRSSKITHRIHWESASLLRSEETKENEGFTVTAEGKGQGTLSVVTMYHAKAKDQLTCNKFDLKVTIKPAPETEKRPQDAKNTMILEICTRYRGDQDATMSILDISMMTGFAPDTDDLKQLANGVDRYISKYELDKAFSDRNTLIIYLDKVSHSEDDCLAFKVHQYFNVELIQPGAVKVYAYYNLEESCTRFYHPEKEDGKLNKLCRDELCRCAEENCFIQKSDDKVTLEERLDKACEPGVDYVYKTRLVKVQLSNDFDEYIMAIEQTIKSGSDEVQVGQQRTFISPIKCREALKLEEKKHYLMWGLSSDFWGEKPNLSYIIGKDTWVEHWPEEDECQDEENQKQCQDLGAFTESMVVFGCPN

cfab_human CFB, P00751 = variants of: B1; details: with cfab_human CFB
Sequence of cfab_human CFB, P00751 (P00751 whole entry): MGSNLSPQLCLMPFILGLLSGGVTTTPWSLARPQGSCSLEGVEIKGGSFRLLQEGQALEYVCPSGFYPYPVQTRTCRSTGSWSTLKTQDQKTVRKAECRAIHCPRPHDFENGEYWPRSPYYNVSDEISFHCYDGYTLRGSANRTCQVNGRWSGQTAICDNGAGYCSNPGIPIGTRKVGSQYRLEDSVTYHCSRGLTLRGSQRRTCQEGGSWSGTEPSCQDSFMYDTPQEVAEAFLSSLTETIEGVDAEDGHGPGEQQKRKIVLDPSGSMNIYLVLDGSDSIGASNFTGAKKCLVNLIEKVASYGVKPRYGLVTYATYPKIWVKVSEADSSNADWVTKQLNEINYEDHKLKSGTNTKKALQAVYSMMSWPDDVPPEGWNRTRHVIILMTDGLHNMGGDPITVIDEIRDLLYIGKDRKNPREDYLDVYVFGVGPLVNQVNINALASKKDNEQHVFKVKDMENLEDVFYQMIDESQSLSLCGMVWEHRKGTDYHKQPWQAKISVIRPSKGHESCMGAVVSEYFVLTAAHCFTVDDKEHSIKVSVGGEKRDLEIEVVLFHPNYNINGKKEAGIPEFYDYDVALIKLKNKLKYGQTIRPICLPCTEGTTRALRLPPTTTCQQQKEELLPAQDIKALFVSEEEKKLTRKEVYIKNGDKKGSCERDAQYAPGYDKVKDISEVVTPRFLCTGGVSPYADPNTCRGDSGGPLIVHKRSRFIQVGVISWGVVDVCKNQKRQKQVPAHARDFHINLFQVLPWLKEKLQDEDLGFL

prop_human CFP, P27918 = variants of: B1; details: with prop_human CFP
Sequence of prop_human CFP, P27918 (P27918 whole entry): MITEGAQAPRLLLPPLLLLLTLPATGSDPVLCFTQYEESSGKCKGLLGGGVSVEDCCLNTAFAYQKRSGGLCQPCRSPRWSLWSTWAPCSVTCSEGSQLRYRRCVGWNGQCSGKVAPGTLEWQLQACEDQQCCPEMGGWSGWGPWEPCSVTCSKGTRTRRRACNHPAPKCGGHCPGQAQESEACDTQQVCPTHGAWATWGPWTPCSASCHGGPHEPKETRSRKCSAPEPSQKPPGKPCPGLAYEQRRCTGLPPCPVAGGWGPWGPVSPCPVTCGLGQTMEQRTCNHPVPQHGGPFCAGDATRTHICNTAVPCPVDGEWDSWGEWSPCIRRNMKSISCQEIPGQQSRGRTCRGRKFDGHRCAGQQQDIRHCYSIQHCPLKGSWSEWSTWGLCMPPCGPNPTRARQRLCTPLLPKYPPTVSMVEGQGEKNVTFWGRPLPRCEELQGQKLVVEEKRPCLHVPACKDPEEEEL

| effect of a mutation on the interaction (co3_human C3, P01024) | effect of a mutation on the interaction (cfab_human CFB, P00751) | effect of a mutation on the interaction (prop_human CFP, P27918) | Variant |
| --- | --- | --- | --- |
| disrupting interaction strength | disrupting interaction strength | disrupting interaction strength | MLLLINVILTLWVSCANGQEVKPCDFPEIQHGGLYYKSLRRLYFPAAAGQSYSYYCDQNFVTPSGSYWDYIHCTQDGWSPTVPCLRTCSKSDIEIENGFISESSSIYILNKEIQYKCKPGYATADGNSSGSITCLQNGWSAQPICIKFCDMPVFENSRAKSNGMRFKLHDTLDYECYDGYEISYGNTTGSIVCGEDGWSHFPTCYNSSEKCGPPPPISNGGTTSFLLKVYVPQSRVEYQCQSYYELQGSNYVTCSNGEWSEPPRCIHPCIITEENMNKNNIQLKGKSDIAYYAKTGDTIEFMCKLGYNANTSVLSFQAVCREGIVEYPRCE [D221G;K290A] |
| decreasing interaction strength | decreasing interaction strength | decreasing interaction strength | MLLLINVILTLWVSCANGQEVKPCDFPEIQHGGLYYKSLRRLYFPAAAGQSYSYYCDQNFVTPSGSYWDYIHCTQDGWSPTVPCLRTCSKSDIEIENGFISESSSIYILNKEIQYKCKPGYATADGNSSGSITCLQNGWSAQPICIKFCDMPVFENSRAKSNGMRFKLHDTLDYECYDGYEISYGNTTGSIVCGEDGWSHFPTCYNSSEKCGPPPPISNGGTTSFLLKVYVPQSRVEYQCQSYYELQGSNYVTCSNGEWSEPPRCIHPCIITEENMNKNNIQLKGKSDIKYYAKTGDTIEFMCKLGYNANTSVLSFQAVCREGIVEYPRCE [D221G] |
